How the values were obtained:
[1] = target: NatT toxin (PA1030), His-tagged, wild type (Pseudomonas aeruginosa) (UniProt Q9I4U4); test: mass photometry; co-purified NatR-NatT complexes at a final concentration of 10 nM, 50 mM Bicine pH 8.5, 50 mM KCl, Refeyn OneMP
[2] = target: NatR anti-toxin (PA1029), co-expressed with His-tagged NatT in E. coli (Pseudomonas aeruginosa); test: as above
[3] = target: NatR anti-toxin (PA1029), co-expressed with His-tagged NatT in E. coli (Pseudomonas aeruginosa); test: crystal structure; NatR-NatT wild-type complex, sitting drop, 2.5 mg/ml, 0.2 M sodium sulfate, 0.1 M Bis-Tris propane 7.5, 20% PEG 3350, 20 C
[4] = target: the molecule itself; test: as above

Row | Molecule | stoichiometry N (NatR per NatT) [1] | stoichiometry N [2] | stoichiometry N [3] | stoichiometry N [4]
1 | NatR anti-toxin (PA1029), co-expressed with His-tagged NatT in E. coli (natural protein) | 2 | 2 | 2 | 
2 | NatT toxin (PA1030), His-tagged, wild type (enzyme, also called NAD+ degrading toxin; RES domain toxin; source: E. coli BL21 (DE3), pRSF-Duet-1, co-expressed with NatR, purified as a complex (HisTrap, SEC)) SEIWRQCKGERHIRPLQGRLVRLVESQEQVATLQLVDTLEEQALLEELLESSKPPVPADAEPLHYLLKTPFRYPPLRWGSRFGRRHEPSLFYAALKLETAMAESAYYRCVLWSGMVVPPPSGRILSEHASFEAGWKVERGIRLQAPPFSDHEAALTDIADYRAPQELGSAMRSAGVQAFEYRSARCPERGCNVALFTPAAFTEKRPRNLTPWLCETTAGYVAFKPAHVPGSPKIFSWELFLVDGKLPHPA |  |  |  | 2
